Blank lines part the entries; values can stand above or below the molecule they belong to.
Assays:
[1] = molecular target: Macaque CTLA-4 expressed on transfected T-cells (macaque); experiment: flow cytometry (FACScan) on cell line expressing recombinant macaque CTLA-4
[2] = molecular target: T1, Recombinant CTLA-4 fusion protein comprising the extracellular domain of human CTLA-4 (R&D Systems Cat. … (human, UniProt P16410 36-161)); experiment: competitive ELISA with biotin labeled and unlabeled antibodies
T1 construct: extracellular domain; Bought protein; also called recombinant human CTLA-4 fusion protein; soluble CTLA-4; not shown: Factor Xa cleavage site and fusion partner (called Ig)
T1 sequence (looked up): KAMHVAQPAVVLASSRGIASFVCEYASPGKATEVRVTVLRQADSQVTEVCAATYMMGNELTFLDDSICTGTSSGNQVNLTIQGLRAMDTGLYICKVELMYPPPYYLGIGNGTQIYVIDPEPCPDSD
Description: Competitive ELISAs were done with biotin labeled and unlabeled antibodies to determine CTLA-4 epitope specificity. Four anti-CTLA-4 epitope binding groups were identified among the human antibodies, and an additional two epitopes were defined by the commercial murine monclonal antibodies BNI3 (Pharmingen, San Diego, Calif.), and 8H5 (Ancell Corp. Bayport, Minn.).

MFI [1]: 4 MFI
Molecule: isotype control (Table 5) (antibody)

binding result [2]: binds
B1: 1E2 (human anti-CTLA-4 monoclonal antibody) (antibody, V domains shown)
VH: QVQLVESGGGVVQPGRSLRLSCAASGFTFSSYGMHWVRQAPGKGLEWVAVIWYDGSNKYYADSVKGRFTISRDNSKNTLYLQMNSLRAEDTAVFYCARAPNYIGAFDVWGQGTMVTVSS
VL: DIQMTQSPSSLSASVGDRVTITCRASQGISSWLAWYQQKPEKAPKSLIYAASSLQSGVPSRFSGSGSGTDFTLTISSLQPEDFATYYCQQYNSYPPTFGQGTKVEIK

Reference: patent US20140234331A1 (published 2014)
